From article PMC5407770, “Pyridoxal phosphate synthases PdxS/PdxT are required for Actinobacillus pleuropneumoniae viability, stress tolerance and virulence” (PLoS ONE, 2017)

Columns and labels:
[1] = target: T1, PdxS (Actinobacillus pleuropneumoniae, UniProt B3GXB6); test: PLP formation assay, OD414; assay type: biochemical; conditions: 50 mM Tris-HCl pH 8.0, 37°C, PdxS alone, 10 mM ammonium sulfate in place of glutamine
T1 construct: full-length ORF (888 bp), pET22b(+) NdeI/XhoI, His6-tag kept, E. coli BL21(DE3); PdxS alone, without PdxT

[2] = tested on: O=CC(O)COP(=O)(O)O; test: purified protein; conditions: 50 mM Tris-HCl pH 8.0, 37°C, PdxS + PdxT mixture, co-substrates ribose 5-phosphate and glutamine, glyceraldehyde 3-phosphate 0–1.0 mM (DL form per methods)
[3] = tested on: NC(=O)CC[C@H](N)C(=O)O; test: purified protein; conditions: 50 mM Tris-Cl pH 8.0, 37°C, PdxS + PdxT mixture, glutamine 0–15 mM

T1 sequence (B3GXB6 whole entry): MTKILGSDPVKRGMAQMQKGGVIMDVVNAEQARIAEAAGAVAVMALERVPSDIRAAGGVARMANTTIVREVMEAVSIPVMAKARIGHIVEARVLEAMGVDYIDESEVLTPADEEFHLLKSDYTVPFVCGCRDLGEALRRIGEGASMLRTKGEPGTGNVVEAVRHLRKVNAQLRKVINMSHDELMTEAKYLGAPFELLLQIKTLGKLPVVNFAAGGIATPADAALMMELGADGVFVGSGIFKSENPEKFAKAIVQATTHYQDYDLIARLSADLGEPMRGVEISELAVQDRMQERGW

`O=CC(O)COP(=O)(O)O` (racemic) [glyceraldehyde 3-phosphate] was tested, and the “PLP formation assay, OD414” value ([1]; 0.5 mM ribose 5-phosphate) was “the individual PdxS could produce PLP in the addition of ammonium”.

`O=P(O)(O)OC[C@H]1OC(O)[C@H](O)[C@@H]1O` (stereo partly drawn) [ribose 5-phosphate] was tested, and the “PLP formation assay, OD414” value ([1]; 1 mM DL-glyceraldehyde 3-phosphate) was “the individual PdxS could produce PLP in the addition of ammonium”.

“PLP synthase PdxS and PdxT (PLP synthesis activity) (Actinobacillus pleuropneumoniae serovar 7 str. AP76)” was tested, and the Km [2] was 175.7 ± 23.0 µM and the kcat [2] was 0.000383 ± 1.83e-05 s⁻¹.

In the case of “PdxS and PdxT (PLP synthase; glutaminase activity of PdxT with PdxS) (Actinobacillus pleuropneumoniae serovar 7 str. AP76)”, the Km [3] is reported as 1720 ± 140 µM and the kcat [3] is reported as 0.102 ± 0.00233 s⁻¹.
